For the experiment, the target named is Actin from rabbit muscle (rabbit) (UniProt P68135). The experiment is described as follows: co-sedimentation.

Regarding “Palld-Ig3 K38/51A double mutant (domain or fragment)”, the percent of protein co-sedimented with F-actin at saturation lay in the range of 20 to 22%.
